# According to the DeepSol protein solubility set:
# Assay: soluble on expression in E. coli; label from the status in PepcDB or PDB records
row,Sequence,soluble on expression in E. coli
1,GPGSMFSGSEGSVRTDDTNVEPPPIPKTRGPLLFEGVRLAGGPPRRTPKRSCSRYFSVTRKTTSAGTDECEHAPPGFSLVNTPSTQDVSPSAKMELPCSAAAHYDDDDDDDDIIPSTAPLPTPHPVMHRVLATGQPNGVSRLLPFDEYVVEEVTPRKCSSISADTSGAAPSTPQGTELREVTQVEEQSPLPAVPEMCESPTRFTLGPRLPVNGEKVRMDFYFLQQEVDAWAKPIETTADVEWHKQHLQETRVAMRSLLHELEVLIAREAAEHERLCIARGFSAMESTSDGKCTYAGETDVVSKTRGKEWKQEELETLEAWRVEKGALLAQKSKLLREHQELQYRLRSHLSGSATGRVTPSPNTSVSRSNKSRGDEGNIGGMSTPLDNGVAQLRLEISEMNAKLKKLEDAYKVLHDNQQWRQGEFDDEYGALCRALATATAGEINNRTALQDTIREAEGVRANCLRQGDASLVSLMERGLSEAKAALKCHDTEQYETK,not soluble
2,GPGSMHDLPEGFEFMEHKVVNKDIHAPHENLETLRLTLTRQDEFLLREEPVKCVTVTGTNGEYGIYPGHAYKIVQLNPSPLTVEYTDGTTKKYFVSGGFAHINNEGSCDVNTVECTLLDDLDLAIAEKELAAQQAALGSAKDDKAKSVVEIRISVIEAVIAALKHH,soluble
3,GPGSMHSMVRVGLTNGMVLTGRIVEFDAVTMNMKLDAITDMAVLHPAAGEGCGDSAYETNPAALRCCNSVVVRGCHLRYMDFIDEESDNGRGLQELITAVRVVKPSVPQD,not soluble
4,GPGSMIAILFGFTLGTAVGACNRAHYSSYGSSVYIAPLPSNSHNSLAFMDIARYRAGLFTTHQSVCGRVVIELFDSISPVSTTNFRGLCQGKHGTSGTGHKLCYSGTRLLPNECFIRGGDVTFGSAAGGWSIYGRSFREMAKGSSSSSRSSDVKGKGLVYAVGANAQWGSEFLITVDGFTPGEDHILLGQVVEGYDVLQRLQQQSLLPHAKRFIHYRILKAGVLKEAETPNYGKGSAFLRF,not soluble
5,GPGSMKERRSVSQSRTSRTGQLRNGGFRESRFRVALMSRCARPSSSGTSHMFAPSSLPSVGQPSYESGVSSMPNISFPTCNDGALSPGDSMYPPSLPQRAKNKRTGQKDKQKRQSTLGSVDSEEEKRSFLASAAAFRRHRRYNNPFTAYCLASDPYDRPREIERQRQFMSCYKRIACRFVAGGKNALDKPTRYMLGDCVARLYKAVAADWPEADPMVVSSAEDLIVVFMNLDAVRNPVTALRYMNALLKRCDVVRAFDLKKVPEGWDVVTEDGHLMYTFRPPWVGERRFLPDQVAVKKSRGR,not soluble
6,GPGSMKQIAHYFRIKTAKHAVLEAGDNIRELCSVLSFPLIIKHVSGYSSVGMDKSCKVYDMDSLHSRVTRFIEQYQIALVEEFVVGDEATILVCADSTQPDGIRVFPPVMVQFPEGEDFKHFHLKWETYEGMEWRLMPEDDPALSQVLSTARTSFMHMMGGVGYGRVDVRIDRSTHDVVFLEINPNCGVMYPPGQEGSADWILRLTPGFNQREFTLLQIKEALRRNERMQPLFRCVYNPAQGYRMCATRDISAGSPIFEAEGQSVRLYTKPHVKATRGKEEYDQFAQKAWPLGGDGHYYALWDNEPTNWRTFSHSCVPNMNFGPNRSLNLYATRDIARGEELTMDYRLFRDETTPPFQCCCGSECCEGWIAMNGGKLTKEENGNNY,not soluble
7,GPGSMKVFHFHGTYRALGVRPKDFSLRAETVDGWRTPVLTSDWERHCDVEGIVTPALSSAGNAASALEPKGPVQVVVATFSLPPGSYATSVLREFCIRTTENGQGNDLETEDEYSSCADTMSHDGCQERRNGRRHHRPASRCIVTRSMRICSLCRSLSPLSLLLLTYVM,soluble
8,GPGSMLAQCSLFVQPRVFKGLVMRSHAPVACWAASLPWMTQQQRRRSSFASATPAAPSTDAGKGNYFHFFRIAKHPDLDVAALQKKYHNLQRLVHPDQQQVQAQQQQAEAADVAPATSSSPLPFACTSNEAKSSTDVSTYANAAYETLRAPYSRCRYLSRLVKAEEVKGNPLSAAEEEELLVEDDQRTMKAREVRPDAPMSDDFLMEMLAMNELIFAGDSSDEGVRQQWSVLRFDLEDRAVGYFKDAIKSWNDGDMGAFHHIVHEWTYVATALNNLKERMLE,not soluble
9,GPGSMLCRVHLRADPHSSSLHNVVHATNAMAAVNQLLGPERSVFVATEVQPQGVGHSCHGIQLPEDAIIAENVRTSMLVPKVRLHILGDAERGIPPVQQVVIWGYETCGCILQTADDLLTHGVRVAVLVDGCASRTKEVHDTAVLQISRWDGLMVTTVPSAVMQLTRSDARFVKPIIQIMKKFAADWCTTQPRPELRDRGGSGDGEKATAASDARAVPSALATATAADAILAANSACCRTEH,not soluble
10,GPGSMLEPIFEEITCLFASRNPKHALQGLSDGLRNAATGVGLGLAGVVAGTYGGAKEGGLGGMAKGFGAGMAGFVGLTGYGAYAGVRQIVRGVGNTRSAVSEVSKGEAYWDSNAQAWVRVNLACDFERLPQTDEDLLGTARKAYEKAKKDGTLPTTLNDSAEGGGASASSATTGAGAASVPQGTDTGETKPAAAEPVNYYAFLGVESAATPSEIRKAYTRKALEMHPDKNPNDPNATIKFQELNKIYNVLSHEGTRATYDRYGTVDPMNVPEMTGNPMKELLGAAFLEALVGPLHFFLVFEGGVLFTAEMKRELHARRRLRVAKNLVSWLDNGASGFESAQLALRDAVSTALGPVFVSYVAEEYHLASRQQLHGSNWKREMDSWYSSWATSASSLWHWTTMGARTARRAFVDKNLGEEDILRVLAVANERDVRQIVLQACRLVLFDMSVTPAQRQQRAMRLEELSVMAMKEVAREVASRERIGASEATAAAAEKGTTTKTPADTNATAPPFS,soluble
11,GPGSMLILLFFSPEMLRRTLSRCFSADAIGPVHPDVMWGYMDARYAGPGWVSWIKQLPVETLTMQGGTSMTNMNDRTGVIADPEDPRHPIALIQWGPMNHYDGAFMQLSYGDYGPISQGSRLMQVLYDNYLEPFSMNRVCAQLYFYQKVPNNYHESVEASAEYIGQTASLIGQVLVGMGSVIMEGVTVKGDTNCVYIAEGVQVLENTCIVSDAPTDLLAYQRHEAINPYQQWDGMDGVCRIMQNTIIEPNCFLDSCSIGPFNRIGHNTKIMKGVTTGTMVHILPGSVVTKDTKIGDGELWGGAPAVKIGKVSKFEWKRPYFASLLHRESVVESYRNMSRYGDQVVHFQDKMGKLDTLMLQYEKDVPASVKAKIKEFVQGREPFHHMLTRITQGWSPANRPDDKNYNLCPPLPGVKLFAEHNNDSSDSDLHGTYMDITNIFNDFRW,not soluble
12,GPGSMLRHAARCFSPRQCYVSPRVMEAEYAVRGLIPARADEIKADLATGHGTYSFESLVYCNIGNPQSVGQMPLTFYRQVMVLVDAPFLLEDAEIVARLPEDAVARARRYLSEIGTGTGAYTESFGFRFARAAVAAHINELDHGVSPAATVNDICLTDGASMGAKLFLQLLVGGASDAVMIPVPQYPLYSAQIALLGGVKVPYGLHESEGWVMKLSDLVAAYERCVTESGATPRLFVCINPGNPTGNVLERCVMEDVVRFCHERGMLLLADEVYQENVYDTRRRFLSFREVVLGMPEPYCSETMLVSLHSTSKGVIGECGRRGGYFCMTNLPAALRQQVVKLCSINLCANVNGQLMTALMCSPPREGEASYALHRREYDEIFTGMKERAELLARELGAVRGLSCQPVEGAMYAFPRIVLPERYAQRNEELNAKEGRQLALDARWALELLESSGIVVVPGSGFGQEPGTLHFRITILPPLEQIDRMVRAIREFQDRIYEQYA,soluble
13,GPGSMLTTTDVGGVVRRINVDYKKLKAAYDQNNDSLCLNLVNGLKKQLILLPTFLNPAAASATWLEEVTLTREVLEYAVLVSARLEDLASFELYFNQLSVYYTDIDPTKLEESPLYSLILGLNLVRLLVDDRIAQFHTELEKVPNHIYAPNAYVRFAVLLERYLMEGSYSKLLNSRDQAPSKEYIPIVGMLEKTVRQGVAECIPHSYAKLSFERAQKILMVDSTDAVREIGKQYEWELGKDGASFVFTRREDIAKREVPFQEMLGHHLNFAADLQRIV,soluble
14,GPGSMMTPEDATGLEAARKQKIHNLKLKTACLENEELVQELHISDWSETQRQKLRGAHEKGEELLASVEVGTKWNLMEAYDLAKLMRVCGLEMSQRELYRPEDKPQFMDIIGVKKVLQDLRQNRNKTRVVSFTQLIDNSIAKMEKVEEELRRSQLDATQLAQVPTRTVKMMEDIMNATQIQNALASTDDQMQTQLAQLEKTNEIQNVAMHDGEMQVAEEQMWTKVQLQERLIELLKDKFGLIGKCEEENAQFKEIYEVQKQANQETSQMKDAKRRLRQRCETDLKHIQDAIQKADLEDAEAAKRYAGNKERSERAIKENEEMQEEAWNKIQDLERQLQNLGTDRFDEVKRRIEEVDREEKRRVENAQFLEIAAQHKKLLELTVYNCDLAMRCTGLVEELVSEGCAGVKARYDKTNQDLAALRLEVHKEHLEYFRMLYLTLGSLIYKKEKRLEEIDRNIRLAHIQLEFCVETFDPNAKKHADMKKELYKLRQGVEEELAMLKEKQAAALDDFKESEEALDAAGIEFSHPVDENNEEVLTRRSKMVEYKSHLTKQEEVRIAAEREEIKRARLLRSGGESAAAQITSGSMNADYAASAQLEL,soluble
15,GPGSMMTTCPQTRCYNCGTFGHSSQICHSKPHCFHCSHSGHRSSECPMRSKGRVCYQCNEPGHEAANCPQGQLCRMCHRPGHFVAHCPEVVCNLCHLKGHTAGVCDNVHCDNCGRNHETVHCHQPYLAPVTHDRVSEERSASLPSEHDPSSADQSNNSATPCDSDDGGSNRGGEPRPRTGVSCAPVVPPYIPLDGPKRDGRVAIVVDGSYFERCVAVRRNRSDPTYYRHITDALLYTIDYIGDIFQCEPFAYWFDTDTAAFREFVETSMPLAHRENAFREASMRKRYLTDEMNSGRSLPNVVAKLVGGMKRQRGFTEDGPGHVWVQTGVDVATATCVIELFQDRRQFRQVVLLCGDADVYPAVQYCNTLRRSSHQHADSNPVRVCGTSDSMSKIYGQQQDLTDFLPRLLLDCPLHTEGGRTIEFPTSKVFMSVR,not soluble
16,GPGSMNLGHAAASSIVVKVAELAKKAFYRLKISSAYSSKLTEAVGTALMSADPEVPVDPNRRSGGHVIRNMIYQHDSSHNIEIVTGWKDQGTREYNQQIAPPAKLDLSPKHPCYPLNEQLVRCSLECPMEMKLAGRIASCNSERKNLMVCLTKNKSWKEEPASAWYKFF,not soluble
17,GPGSMPADEAQAPTQTEVYDRLKWNGWGVEDVQMQIDDENPLWVRHVDGKPIKNLLEFLYQEISGGVGPKEIPPLSPSIPLEKALAKLNKANINEAFMKDISAVLEKSQIRPDGKSRLCHIAGKNYRDLWRVRKGMVEHAPDCILLPNSHKDCVEIMRLAHKHNVVVIPFGGGTNVTGGVEADPFERARMIISVDMRRMNRMISIDRESRLATFETGVLGPDLDAQLFRHGFMLGHDPDSYIYSTLGGWIGARGSGAMSNQYGDIEDMVVAVKVATPTGIIETPTTSRTCGVDLNGLFIGSEGSFGIITEATIKLETIPETKLYEGYLFPTFEAGFSAFYTCTAKGIHPCTMRLYDEDDFRMSMAMSTTKHSFFQRLVSMGVKSFLERYRGWNLRRISLVIVGFEGTPDRVKFQRSETAAVFKQYGGVGVGRSAGATWQDKKYDLPYIRDFALSLSHWADVFETSVLYSQAIPCWRAVKAAVRQVWKEHGHRGWIGCHTAHQYKYGCCLYFTFASAQKDDMDMKIFLAIKKRATEAMLAHTGNLTHHHGIGYEHVPWMSRYMGPDALDLLFAVKQKVDPKNICNPGKLLPSPPRENESAAALKARQQRELMFDKMGVPGAVASHI,not soluble
18,GPGSMPPSHTLLNRRGQQFSSRMHVGAKRKRVEDNASPVSSLYRPLCRGLSTRGSGASAVSCPSVVVILEKAGLLLGREGVVDAYDRAGSTTIANASLRDVRPDIVHQCLLALFDSGLAQEQRQLRVFINLFSRGGRTVEVSPSLRPPRTLRRFKGLVAALLRDGVVRSQDGEVLLQVLPGSLAPVLPYGAEVIGLTNAHSAPVRTPTQLARAALENPVDDKLQGGLKGVAGFFCICCSEDGSLDGVDYVTQQVCLSAYPMTAHVMCSRLCEGFSRAAATGNR,not soluble
